Reference: the nanobody polyreactivity screen of Harvey et al. (2022)

Assay: yeast display, Sf9 membrane polyspecificity reagent, FACS + sequencing; frameworks hold sequencing errors
Summary of the method: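 In a synthetic yeast display library (Saccharomyces cerevisiae BJ5465), nanobody expression was induced with galactose for 36–48 hours. FACS gates were set low and high (top ~1%) using anti-HA fluorescence for expression and streptavidin fluorescence for binding of the Sf9 membrane reagent. Each polyreactivity label is drawn from the gate of origin.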

Sequence | polyreactivity (PSR sort gate)
QVQLVESGGGLVQAGGSLRLSCAASGRTYNPYAMGWYRQAPGKERELVAVISSIGGSTYADSVTGRFTISRDNAKNTVYLQMNSLKTEDTAVFYCNRATFGQWGGDYWGQGTQVTVSS | high polyreactivity
QVQLVESGGGLVQAGGSLRLSCAASGRTYRSYTMGWYRQAPGKERELVASISRRGGSTYYADSVKGRFTISRDNAKNTVYLQMNSLKPEDTAVYYCAAVNVYDAYEYWGQGTQVTVSS | high polyreactivity
QVQLVESGGGLVQAGGSLRLSCAASGRTYSRNAMGWYRQAPGKERELVATISRGGGITFYADSVKGRFTISRDNAKNTVYLQMNSLKPEDTAVYYCAAQYYYWTRRPGDYWGQGTQVTVSS | high polyreactivity
QVQLVESGGGLVQAGGSLRLSCAASGRTYVVKAMGWYRQAPGKERELVAAIIRGNTYYADSVKGRFTISRDNAKNTVYLQMNSLKPEDTAVYYCAARYSPYKYYYWGQGTQVTVSS | high polyreactivity
QVQLVESGGGLVQAGGSLRLSCAASGRTYYGNAMGWYRQAPGKERELVAAITSGGGSTRYADSVKGRFTISRDNAKNTVYLQMNSLKPEDTAVYYCNATLGNFGYRRYSGHTRYYYWGQGTQVTVSS | high polyreactivity
QVQLVESGGGLVQAGGSLRLSCAASGRVYAMGWYRQAPGKERELVAPITTSGGRTYYADSVKGRFTISRDNAKNSVYCQMNSLKPEDTAVYYCNKPGYPPSDMYYWGQGTQVNVSS | low polyreactivity
QVQLVESGGGLVQAGGSLRLSCAASGSFINRYAMGWYRQAPGKERELVAAITQSGGRTYYADSVKGRFTISRDNAKNTVYLQMNSLKPEDTAVYYCNAVRWYLYDYWGQGTQVTVSS | high polyreactivity
QVQLVESGGGLVQAGGSLRLSCAASGSICDRNAMGWYRQAPGKERELVANITWSGVSTYYADSVKGRFTMSRDNAKNTVYLQMNSLKPDDTAVYYCNADYSYRHWYDPGQYGQAMGYWGQGTQVTVSS | low polyreactivity
QVQLVESGGGLVQAGGSLRLSCAASGSICGPYALGWYRQAPGKERELVAAITWTGGRTYYADSVKGRFTISRDNAKNTVYFQMNSLKPEDTAVYYCAADYSPSTWYLYYTLYYYWGQGTQVTVSS | low polyreactivity
QVQLVESGGGLVQAGGSLRLSCAASGSIFAANAMGWYRQAHGKERELVAAISWSGGYTYADSVKGRFTISRDNAKNTVYLQMKSLKPEDTAFYYCAADLWSQYKFGYWGQGTLVTVSS | low polyreactivity
QVQLVESGGGLVQAGGSLRLSCAASGSIFAANAMGWYRQAPGKERELVAAISWSGGSTYADSVKGRFTISRDNAKNTVYLQMNSLKPEDTAVYYCNAYVYVGTGRGYDTLDYWGQGTQVTVSS | low polyreactivity
QVQLVESGGGLVQAGGSLRLSCAASGSIFAANAMGWYRQAPGKERELVAAITSGGSTDYADSVKGRFTISRDNAKNTVYLEMNSLKPEDTAVYYCAKGYVPYAIFDYWGQGTQVTVSS | low polyreactivity
QVQLVESGGGLVQAGGSLRLSCAASGSIFAAYTMGWYRQAPGKERELVAAISVSTVSTYYADSVKGRFTISRDNAKISVYLQMNSLKPEDTAVYYCNADSTTQDYDYWGQGTQVTVSS | low polyreactivity
QVQLVESGGGLVQAGGSLRLSCAASGSIFAAYTMGWYRQAPGKERELVAAISVSTVSTYYADSVKGRFTISRDNAKNTVYIQMNSLKPEDTAVYYCNADATDSYPEKDEHDSWGQGTQVTVSS | low polyreactivity
QVQLVESGGGLVQAGGSLRLSCAASGSIFADNAMGWYRQAPGKEMELVADISWSGGRTYYADSVKGRFTISRDNAKNTVYLQMNSLKPEDTAVYYCAARYRDYRAGFDYWGQGTQLTVSS | high polyreactivity
QVQLVESGGGLVQAGGSLRLSCAASGSIFADYAMGWYRQAPGKERELVAVITSGGRTNYADSVKGRFTISRDNAKNTVYLQMNSLKPEDTAVYYCDTRRYRYYAYRNYYYWGQGTQVTVSS | high polyreactivity

Sequence | polyreactivity (PSR sort gate)
QVQLVESGGGLVQAGGSLRLSCAASGSIFADYAMGWYRQAPGKERELVAVITSSGGSTNYADSVKGRFTISRDNAKNTVYLQMNSLKPEDTAVYYCNRRPYPSYDYWGQGTQVTVSS | low polyreactivity
QVQLVESGGGLVQAGGSLRLSCAASGSIFADYVMGWYRQAPGKERELVAAITRRGRTYYSDSVKGRFTISRDNAMNTVYIQMNILKPEDSAVYYCDKVASGKIDSWGQGTQVTVSS | low polyreactivity
QVQLVESGGGLVQAGGSLRLSCAASGSIFAFYTMGWYRQAPGKERELVATITRSGRTNYADSVKGRFTISRDNAKNTVYLQMNSLKPEDTAVYYCAAGYLSGNYARYGYWGQGTQVTVSS | high polyreactivity
QVQLVESGGGLVQAGGSLRLSCAASGSIFAGYAIGWYRQAPGKERELVAAISWSGGGTYYADSVKGRFTISRDNAKNTVYLQMNSLKPEDTAVYYCNAYGYRHRGNGYWGQGTQVTVSS | high polyreactivity
QVQLVESGGGLVQAGGSLRLSCAASGSIFAGYAMGWYRQAPGKERELVATITSSSRTNYADSVKGRFTISRDNAKNTVYLQMNSLKPEDTAVYYCAARGRYVIDGYRMYYWGQGTQVTVSS | high polyreactivity
QVQLVESGGGLVQAGGSLRLSCAASGSIFAGYAMGWYRQAPGNERELVAAISNRGSSTNYADSVKGRFTISRDNAKITVYLQMNSLKPEDTAVYYCAVGPIRKYDYWGQGTQVTVSS | high polyreactivity
QVQLVESGGGLVQAGGSLRLSCAASGSIFALYAMGWYRQAPGKERELVAAISWRAGGTYYADSVKGRFTISRDNAKNTVYLQMNSLKPEDTAVYYCAAEISLYYYGDYEYWGVGTQVTVSS | high polyreactivity
QVQLVESGGGLVQAGGSLRLSCAASGSIFALYTMGWYRPAPGKERELVAAISRRGGNTYYADSVKGRFTISRDNAKNTVYLQMNSLKPEDTAVYYCNADRLRSTHDYWGQGTQVTVSS | high polyreactivity
QVQLVESGGGLVQAGGSLRLSCAASGSIFAPYAMGWYRQAPGKERELVAAINNNGGRTYYADSVKGRFTISRDNAKNTVYLQMNSLKPEDTAVYYCAKELGYDWYYRPYGYWGQGTQVTVSS | low polyreactivity
QVQLVESGGGLVQAGGSLRLSCAASGSIFAPYAMGWYRQAPGKERELVAAISTGGRTHYADSVKGRFTISRDNAKNTVYLHMNSLKPEDTAVYYCAAARPTAGVIRPHYYWGQGTQVTVSS | high polyreactivity
QVQLVESGGGLVQAGGSLRLSCAASGSIFAPYAMGWYRQAPGKEREVVAAITSGVGSTYYADSVKGRFTISRDNAKNTVYLQMNSLKPEDTAVYYCAADSSYLTYWEYDYWGQGSQVTVSS | low polyreactivity
QVQLVESGGGLVQAGGSLRLSCAASGSIFAPYAMGWYRQAPGTERELVAAITWSGDSTYYADSVKGRFTISRDNAKNTVYLQMNSLKPEDTAVYYCATEEVYGQGNYWGQGTQVTVSS | low polyreactivity
QVQLVESGGGLVQAGGSLRLSCAASGSIFAPYDMGWYRQAPGKERELVAAIDWGGDSTYYADSVKGRFTISRDNAKNTVYLQMNSLKPEDTAVYYCAADDLWLSYRTEYDYYYWGQGTQVTVSS | low polyreactivity
QVQLVESGGGLVQAGGSLRLSCAASGSIFAQNAIGWYRQAPGKERELVAAIDLNGGSTYYADSVKGRFTISRDNAKNTVYLQLNSQKPEDTAVYYCAVYYGHSSVIRSSPEYDSWGQGTQVTVSS | low polyreactivity
QVQLVESGGGLVQAGGSLRLSCAASGSIFAQYAMGWYRQAPGKERELVATISSVGSTNYADSVKGRFTISRDNAKNSVYLLMNSLKPEDTAVYYCNAVRSGWGYFYGLNSWGQGTQVTVSS | low polyreactivity
QVQLVESGGGLVQAGGSLRLSCAASGSIFAQYAMGWYRQAPGKETELVAAISYRGGRTYYADSVKGRFTISRDNAKNTVYLQMNSLKPEDTAVYYCNADSSSYSSDLGYDYWGQGTQVTVSS | low polyreactivity
